Publication PMC5811034, “Xylem specific activation of 5’ upstream regulatory region of two NAC transcription factors (MusaVND6 and MusaVND7) in banana is regulated by SNBE-like sites”

Tests used:
Assay in all cases: EMSA; 10 mM Tris pH 8, 5 mM MgCl2, 10 mM KCl, 20 min (temperature not stated); 1.5% agarose gel
Conditions in all cases: protein: recombinant, chain copies: 2
VND1 (MusaVND1) = target: T1, VND1 (MusaVND1) (Musa (banana), cultivar  for …, UniProt A0A0U3BXB0 1-329)
T1 sequence: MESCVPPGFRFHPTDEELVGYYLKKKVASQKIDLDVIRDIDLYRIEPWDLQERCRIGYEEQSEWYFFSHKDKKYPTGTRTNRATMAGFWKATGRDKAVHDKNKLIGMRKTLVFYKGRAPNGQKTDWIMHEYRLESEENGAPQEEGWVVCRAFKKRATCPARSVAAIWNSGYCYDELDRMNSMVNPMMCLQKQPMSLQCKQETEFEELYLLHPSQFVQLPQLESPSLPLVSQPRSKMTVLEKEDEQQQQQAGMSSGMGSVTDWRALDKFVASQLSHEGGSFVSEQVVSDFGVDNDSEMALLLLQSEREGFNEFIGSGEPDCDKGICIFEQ

VND3 (MusaVND3) = target: T2, VND3 (MusaVND3) (Musa (banana), cultivar  for …, UniProt A0A0G2UF56 1-336)
T2 sequence: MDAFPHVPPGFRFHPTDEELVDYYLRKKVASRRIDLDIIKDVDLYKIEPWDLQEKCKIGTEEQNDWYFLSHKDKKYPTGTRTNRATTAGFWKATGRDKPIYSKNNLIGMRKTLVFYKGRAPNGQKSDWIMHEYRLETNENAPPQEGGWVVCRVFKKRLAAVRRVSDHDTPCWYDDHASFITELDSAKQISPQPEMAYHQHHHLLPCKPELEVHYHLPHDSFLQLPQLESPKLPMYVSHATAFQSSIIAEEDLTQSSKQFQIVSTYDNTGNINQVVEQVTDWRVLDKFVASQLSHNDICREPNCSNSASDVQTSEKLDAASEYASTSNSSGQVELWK

VND2 (MusaVND2) = target: T3, VND2 (MusaVND2) (Musa (banana), cultivar  for …, UniProt A0A0G2UKP9 1-329)
T3 sequence: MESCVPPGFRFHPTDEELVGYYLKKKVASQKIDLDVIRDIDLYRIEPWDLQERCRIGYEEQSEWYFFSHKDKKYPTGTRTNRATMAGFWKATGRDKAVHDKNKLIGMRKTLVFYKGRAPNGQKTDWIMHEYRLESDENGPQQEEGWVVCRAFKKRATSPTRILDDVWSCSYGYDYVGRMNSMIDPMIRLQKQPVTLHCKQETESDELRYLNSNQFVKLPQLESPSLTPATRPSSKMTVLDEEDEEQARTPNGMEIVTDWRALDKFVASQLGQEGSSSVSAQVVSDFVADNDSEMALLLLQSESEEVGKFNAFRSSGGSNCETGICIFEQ

B1: mSNBE PMusaVND6 (dsDNA)
DNA 1: CCTTCGTAAAAGGGCTCTTTAGGTTGG
DNA 2: CCAACCTAAAGAGCCCTTTTACGAAGG
**Q.** Does B1 bind (VND1 (MusaVND1))?
**A.** Result: no binding

**Q.** Does B1 bind (VND3 (MusaVND3))?
**A.** Result: no binding

**Q.** Does B1 bind (VND2 (MusaVND2))?
**A.** Result: no binding

B2: SNBE-like site PMusaVND7 (-186 to -167), 38 bp (dsDNA)
DNA 1: AATTCGATAGCCTTTGGCGTGCACTCAAAGAAATTGGT
DNA 2: ACCAATTTCTTTGAGTGCACGCCAAAGGCTATCGAATT
**Q.** What does the source list for B2?
**A.** binding result (VND1 (MusaVND1); TGGCGTGCACTCAAAGAAA mutant): binds; binding result (VND3 (MusaVND3); TGGCGTGCACTCAAAGAAA mutant): binds; binding result (VND2 (MusaVND2); TGGCGTGCACTCAAAGAAA mutant): binds

B3: mSNBE PMusaVND7 (dsDNA)
DNA 1: CCTTCGGAAAGCACTCATTTAGGTTGG
DNA 2: CCAACCTAAATGAGTGCTTTCCGAAGG
**Q.** Does B3 bind (VND1 (MusaVND1))?
**A.** Result: no binding

**Q.** Does B3 bind (VND3 (MusaVND3))?
**A.** Result: no binding

**Q.** Does B3 bind (VND2 (MusaVND2))?
**A.** Result: no binding

B4: SNBE-like site PMusaVND6 (-220 to -201), 38 bp (dsDNA)
DNA 1: AATTCGATAGCCTTAGTTGTAGGGCTCAAGATTTTGGT
DNA 2: ACCAAAATCTTGAGCCCTACAACTAAGGCTATCGAATT
**Q.** Does B4 bind (VND1 (MusaVND1); AGTTGTAGGGCTCAAGATT mutant)?
**A.** Result: binds

**Q.** Does B4 bind (VND3 (MusaVND3); AGTTGTAGGGCTCAAGATT mutant)?
**A.** Result: binds

**Q.** Does B4 bind (VND2 (MusaVND2); AGTTGTAGGGCTCAAGATT mutant)?
**A.** Result: binds
